Experiment [1] has as its target T1, TGFβ3 (human, UniProt P10600 301-412).
T1 sequence (looked up): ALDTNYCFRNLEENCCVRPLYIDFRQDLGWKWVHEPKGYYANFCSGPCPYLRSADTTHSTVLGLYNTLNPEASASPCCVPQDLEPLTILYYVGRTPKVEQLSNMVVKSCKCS

Experiment [2] deals with T2, TGFβ1 (human, UniProt P01137 279-390).
The next experiment addresses GDF8 (UniProt O14793).
The target in a further experiment is T3, activin B (UniProt P09529).
T3 sequence (looked up): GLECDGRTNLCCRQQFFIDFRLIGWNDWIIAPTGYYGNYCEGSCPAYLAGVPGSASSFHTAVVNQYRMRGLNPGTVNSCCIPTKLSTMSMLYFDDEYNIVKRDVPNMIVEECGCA

For experiment [3], the target named is T4, GDF11 (UniProt O95390 299-407).
For another experiment, the target named is T5, BMP9 (UniProt Q9UK05).
T5 sequence (looked up): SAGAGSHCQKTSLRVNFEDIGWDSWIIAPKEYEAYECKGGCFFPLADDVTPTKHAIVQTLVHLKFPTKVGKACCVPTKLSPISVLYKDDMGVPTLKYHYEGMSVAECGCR

A further experiment concerns the target T6, BMP10 (UniProt O95393).
T6 sequence (looked up): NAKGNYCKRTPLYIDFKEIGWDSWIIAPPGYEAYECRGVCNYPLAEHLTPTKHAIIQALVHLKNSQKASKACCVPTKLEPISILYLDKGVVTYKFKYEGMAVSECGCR

Experiment [4] deals with T7, activin A (UniProt P08476 311-426).
T7 sequence (looked up): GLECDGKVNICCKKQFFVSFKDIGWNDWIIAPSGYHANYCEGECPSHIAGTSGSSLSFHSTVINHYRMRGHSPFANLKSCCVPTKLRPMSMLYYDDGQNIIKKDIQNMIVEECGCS

Another experiment addresses T8, TGFβ2 (human) (UniProt P61812).
T8 sequence (looked up): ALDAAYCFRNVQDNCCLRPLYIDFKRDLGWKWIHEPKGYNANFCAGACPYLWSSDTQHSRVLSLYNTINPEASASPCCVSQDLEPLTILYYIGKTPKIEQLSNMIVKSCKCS

Experiment [5] deals with T2, TGFβ1. This is another data set of the same source.
In experiment [6] the target is T1, TGFβ3. The source holds these as a separate data set.
The target in experiment [7] is T1, TGFβ3. Kind of experiment: cell-based or functional assay.
Experiment [8] concerns the target T2, TGFβ1. Put plainly: cell-based or functional assay.
Experiment [9] deals with T1, TGFβ3. Kind of experiment: cell-based or functional assay. This is another data set of the same source.
The target of experiment [10] is T4, GDF11. Kind of experiment: cell-based or functional assay.
The target in experiment [11] is T7, activin A. Kind of experiment: cell-based or functional assay.
Experiment [12] concerns the target T2, TGFβ1. Kind of experiment: cell-based or functional assay. The source holds these as a separate data set.

Residue numbers refer to the chain shown, from its start. Numbers in names are those of the source. Like-named read-outs stand apart in the source and are kept apart here.

T4 sequence (O95390 299-407 limits assumed): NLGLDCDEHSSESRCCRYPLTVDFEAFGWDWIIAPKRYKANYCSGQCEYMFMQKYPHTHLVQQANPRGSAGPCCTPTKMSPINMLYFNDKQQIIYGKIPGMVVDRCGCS
T2 sequence (P01137 279-390 limits assumed): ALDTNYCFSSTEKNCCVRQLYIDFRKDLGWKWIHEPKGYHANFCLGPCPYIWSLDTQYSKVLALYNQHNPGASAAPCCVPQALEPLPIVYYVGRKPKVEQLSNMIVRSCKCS

As to TGFBRII-(G4S)4-hFc dimer (Fc fusion), the IC50; inhibition of TGFβ3 signalling, CAGA12 reporter gene assay in A549 cells with TGFβ3 [1] came out at 0.106 nM. For the same molecule, the IC50; inhibition of TGFβ1 signalling, CAGA12 reporter gene assay in A549 cells in the experiment with TGFβ1 [2] stood at 0.143 nM.

Take TβRII-Fc homodimer (Fc fusion): the IC50; inhibition of GDF8 signalling, CAGA12 reporter gene assay in the experiment with GDF8 is above 20 µg/mL. In the experiment with activin B, this molecule returned an IC50; inhibition of activin B signalling, CAGA12 reporter gene assay above 20 µg/mL. The IC50; inhibition of GDF11 signalling, CAGA12 reporter gene assay with GDF11 [3] is above 20 µg/mL. In the experiment with BMP9, this molecule showed an IC50; inhibition of BMP9 signalling, CAGA12 reporter gene assay above 20 µg/mL. Moreover, the IC50; inhibition of BMP10 signalling, CAGA12 reporter gene assay with BMP10 is above 20 µg/mL. In the experiment with activin A [4], this molecule registered an IC50; inhibition of activin A signalling, CAGA12 reporter gene assay above 20 µg/mL. In addition, the IC50; inhibition of TGFβ2 signalling, CAGA12 reporter gene assay with TGFβ2 (human) was above 20 µg/mL. In the experiment with TGFβ1 [5], this molecule yielded an IC50; inhibition of TGFβ1 signalling, CAGA12 reporter gene assay of 0.017 nM.

B1: ActRIIB-Fc:TβRII-Fc heterodimer (Fc fusion, not shown: a dimerising Fc or GST)
chain 1: GRGEAETRECIYYNANWELERTNQSGLERCEGEQDKRLHCYASWRNSSGTIELVKKGCWLDDFNCYDRQECVATEENPQVYFCCCEGNFCNERFTHLPEAGGPEVTYEPPPTAPTGGGGSGGGGSGGGGSGGGGS
chain 2: TIPPHVQKSDVEMEAQKDEIICPSCNRTAHPLRHINNDMIVTDNNGAVKFPQLCKFCDVRFSTCDNQKSCMSNCSITSICEKPQEVCVAVWRKNDENITLETVCHDPKLPYHDFILEDAASPKCIMKEKKKPGETFFMCSCSSDECNDNIIFSEEYNTSNPDTGGGGSGGGGSGGGGSGGGGS
The molecule B1 returned an IC50; inhibition of GDF8 signalling, CAGA12 reporter gene assay in the experiment with GDF8 of 8.16 nM. In the experiment with TGFβ3 [6], this molecule displayed an IC50; inhibition of TGFβ3 signalling, CAGA12 reporter gene assay of 0.31 nM. This molecule also yielded an IC50; inhibition of activin B signalling, CAGA12 reporter gene assay with activin B of 0.64 nM. Besides, the IC50; inhibition of GDF11 signalling, CAGA12 reporter gene assay with GDF11 [3] worked out at 1.73 nM. The molecule also yielded an IC50; inhibition of BMP9 signalling, CAGA12 reporter gene assay in the experiment with BMP9 above 20 µg/mL. The molecule further had an IC50; inhibition of BMP10 signalling, CAGA12 reporter gene assay with BMP10 of 1.76 nM. In the experiment with activin A [4], this molecule returned an IC50; inhibition of activin A signalling, CAGA12 reporter gene assay of 0.85 nM. This molecule came in with an IC50; inhibition of TGFβ2 signalling, CAGA12 reporter gene assay with TGFβ2 (human) above 20 µg/mL. In the experiment with TGFβ1 [5], this molecule displayed an IC50; inhibition of TGFβ1 signalling, CAGA12 reporter gene assay of 0.348 nM.

B2: Fc1-(G4S)4G-TGFBRII, homodimer (Fc fusion)
chain: GASNTKVDKRVTGGGTHTCPPCPAPELLGGPSVFLFPPKPKDTLMISRTPEVTCVVVDVSHEDPEVKFNWYVDGVEVHNAKTKPREEQYNSTYRVVSVLTVLHQDWLNGKEYKCKVSNKALPAPIEKTISKAKGQPREPQVCTLPPSREEMTKNQVSLSCAVKGFYPSDIAVEWESNGQPENNYKTTPPVLDSDGSFFLVSKLTVDKSRWQQGNVFSCSVMHEALHNHYTQKSLSLSPGAGGGGSGGGGSGGGGSGGGGSGTIPPHVQKSDVEMEAQKDEIICPSCNRTAHPLRHINNDMIVTDNNGAVKFPQLCKFCDVRFSTCDNQKSCMSNCSITSICEKPQEVCVAVWRKNDENITLETVCHDPKLPYHDFILEDAASPKCIMKEKKKPGETFFMCSCSSDECNDNIIFSEEYNTSNPD
For the molecule B2, the “CAGA12 reporter gene assay in A549 cells, inhibition relative to the TGFBRII-(G4S)4-hFc homodimer” value with TGFβ3 [7] and with TGFβ1 [8] was around 7 fold throughout.

B3: ActRIIB-Fc-(G4S)4G-TGFBRII + Fc1-(G4S)4G-TGFBRII (3-arm) (Fc fusion)
ActRIIB-Fc(knob)-(G4S)4G-TGFBRII chain: GASGRGEAETRECIYYNANWELERTNQSGLERCEGEQDKRLHCYASWRNSSGTIELVKKGCWLDDFNCYDRQECVATEENPQVYFCCCEGNFCNERFTHLPEAGGPEVTYEPPPTAPTGGGTHTCPPCPAPELLGGPSVFLFPPKPKDTLMISRTPEVTCVVVDVSHEDPEVKFNWYVDGVEVHNAKTKPREEQYNSTYRVVSVLTVLHQDWLNGKEYKCKVSNKALPAPIEKTISKAKGQPREPQVYTLPPCREEMTKNQVSLWCLVKGFYPSDIAVEWESNGQPENNYKTTPPVLDSDGSFFLYSKLTVDKSRWQQGNVFSCSVMHEALHNHYTQKSLSLSPGAGGGGSGGGGSGGGGSGGGGSGTIPPHVQKSDVEMEAQKDEIICPSCNRTAHPLRHINNDMIVTDNNGAVKFPQLCKFCDVRFSTCDNQKSCMSNCSITSICEKPQEVCVAVWRKNDENITLETVCHDPKLPYHDFILEDAASPKCIMKEKKKPGETFFMCSCSSDECNDNIIFSEEYNTSNPD
Fc1(hole)-(G4S)4G-TGFBRII chain: B2 chain
Regarding B3, the “IC50; inhibition of TGFβ3 signalling, CAGA12 reporter gene assay in A549 cells” value with TGFβ3 [9] worked out at 0.016 nM. Moreover, the “IC50; inhibition of GDF11 signalling, CAGA12 reporter gene assay in A204 cells” value with GDF11 [10] came out at 4.4 nM. For the same molecule, the “IC50; inhibition of activin A signalling, CAGA12 reporter gene assay in A204 cells” value with activin A [11] is 2.96 nM. The “IC50; inhibition of TGFβ1 signalling, CAGA12 reporter gene assay in A549 cells” value with TGFβ1 [12] worked out at 0.0201 nM.

B4: ActRIIB-Fc homodimer (Fc fusion)
ActRIIB-Fc chain: GRGEAETRECIYYNANWELERTNQSGLERCEGEQDKRLHCYASWRNSSGTIELVKKGCWLDDFNCYDRQECVATEENPQVYFCCCEGNFCNERFTHLPEAGGPEVTYEPPPTAPTGGGTHTCPPCPAPELLGGPSVFLFPPKPKDTLMISRTPEVTCVVVDVSHEDPEVKFNWYVDGVEVHNAKTKPREEQYNSTYRVVSVLTVLHQDWLNGKEYKCKVSNKALPVPIEKTISKAKGQPREPQVYTLPPSREEMTKNQVSLTCLVKGFYPSDIAVEWESNGQPENNYKTTPPVLDSDGSFFLYSKLTVDKSRWQQGNVFSCSVMHEALHNHYTQKSLSLSPGK
Consider B4, for which, in the experiment with GDF11 [10], the “IC50; inhibition of GDF11 signalling, CAGA12 reporter gene assay in A204 cells” value was 0.135 nM. Also, in the experiment with activin A [11], the “IC50; inhibition of activin A signalling, CAGA12 reporter gene assay in A204 cells” value worked out at 0.079 nM. For the same molecule, in the experiment with GDF8, the IC50; inhibition of GDF8 signalling, CAGA12 reporter gene assay is 0.83 nM. The molecule further showed an IC50; inhibition of TGFβ3 signalling, CAGA12 reporter gene assay with TGFβ3 [6] above 20 µg/mL. Also, the IC50; inhibition of activin B signalling, CAGA12 reporter gene assay in the experiment with activin B was determined as 0.07 nM. Moreover, the IC50; inhibition of GDF11 signalling, CAGA12 reporter gene assay with GDF11 [3] is 0.09 nM. Moreover, the IC50; inhibition of BMP9 signalling, CAGA12 reporter gene assay in the experiment with BMP9 was 2 nM. In the experiment with BMP10, the IC50; inhibition of BMP10 signalling, CAGA12 reporter gene assay worked out at 0.556 nM. Also, in the experiment with activin A [4], the IC50; inhibition of activin A signalling, CAGA12 reporter gene assay was determined as 0.05 nM. The IC50; inhibition of TGFβ2 signalling, CAGA12 reporter gene assay with TGFβ2 (human) is above 20 µg/mL. In the experiment with TGFβ1 [5], this molecule came in with an IC50; inhibition of TGFβ1 signalling, CAGA12 reporter gene assay above 20 µg/mL.

B5: ActRIIB-Fc Single-Arm (Fc fusion)
ActRIIB-Fc chain: B4 ActRIIB-Fc chain with V226A, E252K, D295K
Fc chain without receptor domain: SNTKVDKRVTGGGTHTCPPCPAPELLGGPSVFLFPPKPKDTLMISRTPEVTCVVVDVSHEDPEVKFNWYVDGVEVHNAKTKPREEQYNSTYRVVSVLTVLHQDWLNGKEYKCKVSNKALPAPIEKTISKAKGQPREPQVYTLPPSREEMTKNQVSLTCLVKGFYPSDIAVEWESNGQPENNYDTTPPVLDSDGSFFLYSDLTVDKSRWQQGNVFSCSVMHEALHNHYTQKSLSLSPGK
For the molecule B5, the “IC50; inhibition of GDF11 signalling, CAGA12 reporter gene assay in A204 cells” value with GDF11 [10] came out at 2.61 nM. Also, the “IC50; inhibition of activin A signalling, CAGA12 reporter gene assay in A204 cells” value in the experiment with activin A [11] was 1.41 nM.
